What was measured:
purified protein [1] = substrate: O=[N+]([O-])c1ccc(O[C@@H]2O[C@H](CO)[C@@H](O)[C@H](O)[C@H]2O)cc1; experiment: purified protein; conditions: 60.0 °C
purified protein [2] = substrate: OC[C@H]1O[C@@H](O[C@H]2[C@H](O)[C@@H](CO)OC(O)[C@@H]2O)[C@H](O)[C@@H](O)[C@@H]1O; experiment: purified protein; conditions: 60.0 °C

B1: TxGH116 β-glucosidase (Thermoanaerobacterium xylanolyticum LX-11) (protein)
chain: LTGCSEKININEDKISHKIDIPDSAWTIGIGEKFKNAGHPNVKYPMIDDSYVQGAPLGGFGAGTIGRTYNGGFSRWHLEIGKNKYTTVYANQFSVFQKVEGNKDGVAQVLYAGEPENGYLSSWKWDYPKESGMYYALYPNSWYTYTNKDLPVQLAVKQFSPIIPYNYKETSYPVAVFKWTAYNPTNKNVDVSIMFTWQNMIGFFGKQVNVNSGNFNKIIKDKSKDSEIVAAVMGNISNDNEEWNGEYSIGVKKVPGVDISYKAKFVTTGDGSDLWHEFSKNGILDNKDDETPTKQDGIGSAIAVNFKLQPGQTIEVPFALSWDLPIMKFGGGDKWYKMYTKYFGKNGKNSFAILKEALNNYQKWEKMIDDWQKPILSNKSKPDWYKTALFNELYYLADGGTAWENGKVGEKDKRTNNMFGLLECFDYNYYETLDVRFYGSFPLVMLWPDIEKQVMRQFADTINVQDSSEFKVGSNGAMAVKKVQGMIPHDLGSSYALPWIKINAYDWQNPNIWKDLNSKYVLLVYRDYVLTGKTDKEFLKYTWKSVKTALDKLKEMDKDNDGIPDNEGIPDQTYDTWSMKGTSAYCGSLWLAALKAAQEIGKVLKDNEAYIKYNEWYKIAQQNFEKELWNGEYYNFDTESDHKDSIMADQLAGQWYADILRLGDILPKDHVQKALKKIYEFNVMKFENGKMGAVNGMRPDGIVDESDIQAQEVWTGVTYALASFMKYRGMTEEAYNTAYGVYKMTYDKSGKGYWFRTPEAWTKDGNYRASMYMRPLSIWSMEVNYNEV
For B1, the Km (purified protein [1]) was 180 ± 8 µM, the kcat (purified protein [1]) was 49 ± 0.8 s⁻¹ and the kcat/Km (purified protein [1]) was 272000 M⁻¹ s⁻¹. The Km (purified protein [2]) was 270 ± 18 µM, the kcat (purified protein [2]) was 41.4 ± 0.7 s⁻¹ and the kcat/Km (purified protein [2]) was 153000 M⁻¹ s⁻¹.

Source: article PMC4949581
